This note sets out measurements from paper PMC10501992, “How Pol α-primase is targeted to replisomes to prime eukaryotic DNA replication” (Molecular Cell, 2023).

Common to all, as to details: both partners purified
Assay [1] addresses T1, PRIM2 (human primase accessory subunit) (human, UniProt P49643 1-509).
T1 construct: PRIM2, human; modelled residues 1-5 (N terminus) and 17-252 (NTD); stood in the assay as a subunit of m18; also called PRIM2NTD; PRIM2_(Nterm)
T1 sequence: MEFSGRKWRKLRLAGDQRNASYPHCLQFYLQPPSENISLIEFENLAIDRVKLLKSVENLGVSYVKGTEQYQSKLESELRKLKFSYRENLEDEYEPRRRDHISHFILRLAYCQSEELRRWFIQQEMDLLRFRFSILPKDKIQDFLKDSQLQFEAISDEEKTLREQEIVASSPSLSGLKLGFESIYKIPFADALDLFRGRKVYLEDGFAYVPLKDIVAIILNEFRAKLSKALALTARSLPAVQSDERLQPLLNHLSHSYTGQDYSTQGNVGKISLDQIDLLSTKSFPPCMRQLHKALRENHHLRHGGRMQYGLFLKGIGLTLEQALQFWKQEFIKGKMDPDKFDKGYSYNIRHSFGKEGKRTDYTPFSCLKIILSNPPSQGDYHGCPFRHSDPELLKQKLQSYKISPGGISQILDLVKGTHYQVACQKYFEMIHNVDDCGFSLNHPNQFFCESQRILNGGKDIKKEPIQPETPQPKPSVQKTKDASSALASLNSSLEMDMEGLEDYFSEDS
The experiment in a line: cryo-EM structure; human replisome: 150 nM CMG on fork DNA (60 nt or 15 nt 5′ flap) with 1.5-fold molar excess of AND-1, TIMELESS-TIPIN, CLASPIN and Pol α-primase; 25 mM HEPES-NaOH pH 7.6, 150 mM NaOAc, 0.5 mM TCEP, 500 μM AMP-PNP, 10 mM Mg(OAc)2, on ice; 10-30% glycerol gradient with glutaraldehyde and BS3 cross-linkers.

Assay [2] concerns the target T2, budding yeast CMG (Cdc45-Mcm2-7-GINS) replicative helicase (S. cerevisiae, UniProt Q08032 1-650; P29469 1-868; P24279 1-971; P30665 1-933; P29496 1-775; P53091 …).
T2 construct: Cdc45, S. cerevisiae; Mcm2, S. cerevisiae; Mcm3, S. cerevisiae; Mcm4, S. cerevisiae (named only within Mcm2-7); Mcm5, S. cerevisiae; Mcm6, S. cerevisiae (named only within Mcm2-7); Mcm7, S. cerevisiae (named only within Mcm2-7); Psf1, subunit of GINS, S. cerevisiae; Psf2, subunit of GINS, S. cerevisiae; Sld5, subunit of GINS, S. cerevisiae; source: S. cerevisiae strain yJY197, expressed and …
Kind of assay: cryo-EM structure; budding yeast replisome: 150 nM CMG on fork DNA (39 nt 3′ flap, 60 nt 5′ flap) with 1.5-fold molar excess of Tof1-Csm3, Mrc1 and Pol α-primase; 25 mM HEPES-NaOH pH 7.6, 150 mM NaOAc, 0.5 mM TCEP, 500 μM AMP-PNP, 10 mM Mg(OAc)2, on ice; 10-30% glycerol gradient with glutaraldehyde and BS3 cross-linkers.

Assay [3] has as its target T3, Mrc1 (budding yeast) (S. cerevisiae, UniProt P25588 1-1096).
T3 construct: Mrc1, S. cerevisiae; several small sections modelled (S339-K323 as printed, D468-Q483, N842-E858); source: S. cerevisiae strain yJY32, expressed and purified as described previously
T3 sequence: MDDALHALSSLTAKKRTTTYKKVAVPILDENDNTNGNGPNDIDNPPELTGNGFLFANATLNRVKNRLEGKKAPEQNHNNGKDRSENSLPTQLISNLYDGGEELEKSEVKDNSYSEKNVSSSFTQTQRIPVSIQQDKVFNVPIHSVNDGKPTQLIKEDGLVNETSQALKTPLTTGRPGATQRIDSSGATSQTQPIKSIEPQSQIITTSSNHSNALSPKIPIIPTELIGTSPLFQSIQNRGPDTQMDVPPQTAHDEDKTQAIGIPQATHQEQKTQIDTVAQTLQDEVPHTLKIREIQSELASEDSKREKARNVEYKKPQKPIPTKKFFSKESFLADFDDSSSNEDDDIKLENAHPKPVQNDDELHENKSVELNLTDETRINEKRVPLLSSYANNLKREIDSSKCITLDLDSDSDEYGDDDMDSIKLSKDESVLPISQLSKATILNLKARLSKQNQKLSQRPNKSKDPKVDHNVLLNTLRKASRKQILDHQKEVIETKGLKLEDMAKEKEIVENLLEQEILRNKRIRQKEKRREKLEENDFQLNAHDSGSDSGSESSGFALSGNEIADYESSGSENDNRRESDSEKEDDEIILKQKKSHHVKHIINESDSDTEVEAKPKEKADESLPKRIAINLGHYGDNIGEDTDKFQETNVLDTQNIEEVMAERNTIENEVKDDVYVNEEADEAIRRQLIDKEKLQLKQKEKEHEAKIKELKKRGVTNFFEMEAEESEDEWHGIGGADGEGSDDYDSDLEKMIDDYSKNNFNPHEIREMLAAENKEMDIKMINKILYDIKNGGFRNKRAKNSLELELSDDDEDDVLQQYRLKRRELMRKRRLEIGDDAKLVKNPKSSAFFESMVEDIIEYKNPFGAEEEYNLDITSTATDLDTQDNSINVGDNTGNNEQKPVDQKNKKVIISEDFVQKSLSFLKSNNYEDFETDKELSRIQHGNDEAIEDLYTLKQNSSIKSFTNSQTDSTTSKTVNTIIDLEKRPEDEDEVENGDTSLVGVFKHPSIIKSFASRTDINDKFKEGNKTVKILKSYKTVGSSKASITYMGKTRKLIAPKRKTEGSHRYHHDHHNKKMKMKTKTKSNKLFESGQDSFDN
The description is as above.

B1: PSF2 (human GINS subunit) (natural protein)
chain: MDAAEVEFLAEKELVTIIPNFSLDKIYLIGGDLGPFNPGLPVEVPLWLAINLKQRQKCRLLPPEWMDVEKLEKMRDHERKEETFTPMPSPYYMELTKLLLNHASDNIPKADEIRTLVKDMWDTRIAKLRVSADSFVRQQEAHAKLDNLTLMEINTSGTFLTQALNHMYKLRTNLQPLESTQSQDF
notes: PSF2, subunit of GINS, human; stood in the assay as a subunit of m19
With B1, the binding result in assay [1] is “binds”.

B2: Tof1-Csm3 (budding yeast) (complex, S. cerevisiae)
chain 1: MSADLQQGTTNAADFSLTVLRARIALLATAIGGPDYTSQIDPPPYKLGDDCLACLKDLKRWFKLVDDQQKRWDVAMAVAEYRILTDDLLPILIDWENKCSLAAKLAKNNPDHEEFRNKAYYDKIALNCLQLLVLMTWPLIVTEQSSSNQITLYGELKKHQLVYKKTILSMESGKVLRAAIRLALDVIKIDRLSRTPRDNMVLKLVLNFFRNVIAIEPGEFTINTKKSMPKKGITSIDTLPPNVSMDDISLNTVISSFHKNKVFGFLLTLTSSLSKEFDQDFINIPLLEIMFYFTKDVNQELLFPRQFETGTHSKVVNKNESSSANNIVTSAGFELSKLLQKEHQMRKNVIKHTSARHSRFGGLLSIQTPDKTRLTVSGSQALVDEKIALQKLDDSKKWNKRIIKKHQSVAAEGLPNSLLNSQTGKAIFFTESNGKHFKEFINNFIDSGFNILLHSVTNYFTTEQDRMVTLEQVEYLLFFAWFVKYQLLRSKIDNSADIKQVSEALKEVTFILVSSLLRSAYDLKNWTVTHAGMIAFNELLNLVSRTKAAQEEDSTDIEFIVSRLFSDERIQLLSNLPKIGSKYSLQFMKSCIELTHSVLKVLEQYSDDKTLVIEGKSRRQKKFNISEGDITKLIEEENVDRDEALDILTSSLRSIEVNFQKVQANYMTEPVIETYINFLERFRELEDDSIKKVFSFFHRVFVQAKEQALLFRFDLIILLREMLSPDGLDRMSRSRKYVSQFSDYFLARLKKRLKKSPAWFVGLLFPPLHNSEVGFYQRYGEYNVLNNESMYAAPASQFKPIPDEEALPPSILLDMKYGVLVSTLLDDGKTELLDQLLKHITHTLDIFKSWLTVNVNAGKETVNPPNEYFTLTGVLNNDPIFKDKDYRALLLLIGYSIPRKINEPCFLPGTVEVSDLTVSCELVKKYLSTPFETPNGLPSSSYLLRVRSEKDSFSHNEQDGWEGDDDYDYNDPYIVPDDQILSKSDAAYFKDLDNNASDKLKGTKFSKGIARSKKKDKRKRRKGEAKTNLPMFGDQDDERPQTVRERHGVFSKEFISDSEDDEDLMNPIFFENETYMRWLLDKNNGQLTEDRYIQFAKFAAERMNNGGVVTGDYTSLFGGSIPSIESIRATESSSFAPDKSLISLASHVASEMSIFDVNNNNNNQLSDDDVNSESRNSLGSSQPSNSQNMFQSEVYSRKESTKRSLEASAADESDEDEEAIRLFGKKSRVVLSQGDSDD
chain 2: MDQDFDSLLLGFNDSDSVQKDPTVPNGLDGSVVDPTIADPTAITARKRRPQVKLTAEKLLSDKGLPYVLKNAHKRIRISSKKNSYDNLSNIIQFYQLWAHELFPKAKFKDFMKICQTVGKTDPVLREYRVSLFRDEMGMSFDVGTRETGQDLERQSPMVEEHVTSAEERPIVADSFAQDKRNVNNVDYDNDEDDDIYHLSYRNRRGRVLDERGNNETVLNNVVPPKEDLDALLKTFRVQGPVGLEENEKKLLLGWLDAHRKMEKGSMTEEDVQLIQSLEEWEMNDIEGQHTHYDLLPGGDEFGVDQDELDAMKEMGF
notes: Tof1, S. cerevisiae; Csm3, S. cerevisiae; source: S. cerevisiae strain yAE48, expressed and purified as described previously
Take B2: the binding result in assay [2] is listed as “binds”.

B3: Mcm2 (budding yeast) (natural protein, S. cerevisiae)
chain: MSDNRRRRREEDDSDSENELPPSSPQQHFRGGMNPVSSPIGSPDMINPEGDDNEVDDVPDIDEVEEQMNEVDLMDDNMYEDYAADHNRDRYDPDQVDDREQQELSLSERRRIDAQLNERDRLLRNVAYIDDEDEEQEGAAQLDEMGLPVQRRRRRRQYEDLENSDDDLLSDMDIDPLREELTLESLSNVKANSYSEWITQPNVSRTIARELKSFLLEYTDETGRSVYGARIRTLGEMNSESLEVNYRHLAESKAILALFLAKCPEEMLKIFDLVAMEATELHYPDYARIHSEIHVRISDFPTIYSLRELRESNLSSLVRVTGVVTRRTGVFPQLKYVKFNCLKCGSILGPFFQDSNEEIRISFCTNCKSKGPFRVNGEKTVYRNYQRVTLQEAPGTVPPGRLPRHREVILLADLVDVSKPGEEVEVTGIYKNNYDGNLNAKNGFPVFATIIEANSIKRREGNTANEGEEGLDVFSWTEEEEREFRKISRDRGIIDKIISSMAPSIYGHRDIKTAVACSLFGGVPKNVNGKHSIRGDINVLLLGDPGTAKSQILKYVEKTAHRAVFATGQGASAVGLTASVRKDPITKEWTLEGGALVLADKGVCLIDEFDKMNDQDRTSIHEAMEQQSISISKAGIVTTLQARCSIIAAANPNGGRYNSTLPLAQNVSLTEPILSRFDILCVVRDLVDEEADERLATFVVDSHVRSHPENDEDREGEELKNNGESAIEQGEDEINEQLNARQRRLQRQRKKEEEISPIPQELLMKYIHYARTKIYPKLHQMDMDKVSRVYADLRRESISTGSFPITVRHLESILRIAESFAKMRLSEFVSSYDLDRAIKVVVDSFVDAQKVSVRRQLRRSFAIYTLGH
notes: Mcm2, S. cerevisiae; stood in the assay as a subunit of m2; source: subunit of CMG from S. cerevisiae strain yJY197, purified as described previously
B3: in assay [3], the binding result is “binds”.

B4: Cdc45 (budding yeast) (natural protein, S. cerevisiae, UniProt Q08032 1-650, looked up)
chain: MYYGISQFSEAYNKILRNSSSHSSCQLVIFVSCLNIDALCATKMLSLLFKKQLVQSQIVPIFGYSELRRHYSQLDDNINSLLLVGFGGVIDLEAFLEIDPQEYVIDTDEKSGEQSFRRDIYVLDAHRPWNLDNIFGSQIIQCFDDGTVDDTLGEQKEAYYKLLELDEESGDDELSGDENDNNGGDDEATDADEVTDEDEEDEDETISNKRGNSSIGPNDLSKRKQRKKQIHEYEGVLEEYYSQGTTVVNSISAQIYSLLSAIGETNLSNLWLNILGTTSLDIAYAQVYNRLYPLLQDEVKRLTPSSRNSVKTPDTLTLNIQPDYYLFLLRHSSLYDSFYYSNYVNAKLSLWNENGKKRLHKMFARMGIPLSTAQETWLYMDHSIKRELGIIFDKNLDRYGLQDIIRDGFVRTLGYRGSISASEFVEALTALLEVGNSTDKDSVKINNDNNDDTDGEEEEDNSAQKLTNLRKRWVSNFWLSWDALDDRKVELLNRGIQLAQDLQRAIFNTGVAILEKKLIKHLRIYRLCVLQDGPDLDLYRNPLTLLRLGNWLIECCAESEDKQLLPMVLASIDENTDTYLVAGLTPRYPRGLDTIHTKKPILNNFSMAFQQITAETDAKVRIDNFESSIIEIRREDLSPFLEKLTLSGLL
notes: Cdc45, S. cerevisiae; stood in the assay as a subunit of m2; source: subunit of CMG from S. cerevisiae strain yJY197, purified as described previously
With B4, the binding result in assay [3] was “binds”.
